Ends that are not written are not given here. * marks the point of attachment. Biotin = O=C1N[C@H]2[C@H](CS[C@H]2CCCCC(=O)*)N1
Legend:
[1] = molecular target: CD36, murine, endogenous on cells (mouse) (UniProt Q08857); test: cell-based or functional assay
[2] = molecular target: CD47, human, endogenous on cells (human, UniProt Q08722 19-323); test: cell-based or functional assay

Sequence of CD36, murine, endogenous on cells (mouse) (Q08857 whole entry): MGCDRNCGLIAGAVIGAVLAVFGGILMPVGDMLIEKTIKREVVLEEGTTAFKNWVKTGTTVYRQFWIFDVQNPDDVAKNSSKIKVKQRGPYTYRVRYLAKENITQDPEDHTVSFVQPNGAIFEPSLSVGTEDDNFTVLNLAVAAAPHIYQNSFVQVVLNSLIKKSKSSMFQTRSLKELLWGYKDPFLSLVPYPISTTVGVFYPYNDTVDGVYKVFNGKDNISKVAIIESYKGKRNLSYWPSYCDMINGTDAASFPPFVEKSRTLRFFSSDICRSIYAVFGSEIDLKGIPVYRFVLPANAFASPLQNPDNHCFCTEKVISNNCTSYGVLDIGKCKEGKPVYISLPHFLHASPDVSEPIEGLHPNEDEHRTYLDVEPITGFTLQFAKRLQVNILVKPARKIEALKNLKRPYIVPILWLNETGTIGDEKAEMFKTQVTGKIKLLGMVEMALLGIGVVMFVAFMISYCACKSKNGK

An NO-stimulated adhesion of MASMC on type I collagen [1] of 22 nM was found for “Thrombospondin-1 (TSP1), prepared from human platelets (from UniProt P07996 19-1170) (ligand)” in this work.

In the case of “E3CaG1, recombinant C-terminal regions of TSP1 (from UniProt P07996 646-1170) (ligand)”, the NO-driven HASMC adhesion to collagen [2] is reported as > 0.4 nM.

HIGWKDFTAYRWRLS [peptide C6b (HIGWKDFTAYRWRLS)] was tested, and the “cGMP signaling IC50**” value [2] was ~100 nM.

For Biotin-IGWKDFTAYR [peptide C6d (biotin-IGWKDFTAYR)], the “cGMP signaling IC50**” value [2] was ~100 nM.

Ac-WKDFTAYR [peptide 37300 (Ac-WKDFTAYR)] was tested, and the “cGMP signaling IC50**” value [2] was ~1000 nM.

With AGWKDFTAYR [peptide 37416 (AGWKDFTAYR)] the “cGMP signaling IC50**” value [2] was ~1000 nM.

For IGYKDFTAYR [peptide 37417 (IGYKDFTAYR)], the “cGMP signaling IC50**” value [2] was ~100 nM.

For IGWADFTAYR [peptide 37413], the “cGMP signaling IC50**” value [2] was > 10000 nM.

IGWHDFTAYR [peptide 37414 (IGWHDFTAYR)] was tested, and the “cGMP signaling IC50**” value [2] was > 10000 nM.

With IGWKNFTAYR [peptide 37297 (IGWKNFTAYR)] the “cGMP signaling IC50**” value [2] was > 10000 nM.

For IGWKEFTAYR [peptide 37415 (IGWKEFTAYR)], the “cGMP signaling IC50**” value [2] was 1000 nM.

With IGWKDYTAYR [peptide 37298 (IGWKDYTAYR)] the “cGMP signaling IC50**” value [2] was ~100 nM.

IGWKDFAAYR [peptide 37299] was tested, and the “cGMP signaling IC50**” value [2] was > 10000 nM.

IGWKDFTAAR [peptide 37555 (IGWKDFTAAR)] was tested, and the “cGMP signaling IC50**” value [2] was ~10000 nM.

— patent publication US20100092467A1 (US Dept. of Health and Human Services, published 2010)
